Biological target: T1, interferon-gamma receptor subunit 2 (IFN-γR2) (UniProt P38484 28-247, limits assumed)
T1 construct: Soluble purified protein (crystallised; analyte in SPR)
T1 sequence (looked up): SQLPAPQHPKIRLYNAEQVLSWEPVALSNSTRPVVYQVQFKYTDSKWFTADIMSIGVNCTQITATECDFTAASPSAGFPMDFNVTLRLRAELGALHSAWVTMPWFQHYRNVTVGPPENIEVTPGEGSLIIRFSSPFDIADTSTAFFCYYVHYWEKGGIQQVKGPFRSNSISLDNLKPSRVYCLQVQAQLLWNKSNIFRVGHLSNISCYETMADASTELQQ
Assay: SPR (Biacore T100, equilibrium); IFN-γR2 dilutions over captured IFN-γR1 in the presence of 50 nM mutant IFN-γ
Procedure: The structure of the IFN-γ signaling complex as described in Example 2 above provided opportunities to address new questions to further understand IFN-γ signaling and activity. By identifying the shared interactions, previously unknown, at sites IIa/IIb, one now can better understand IFN-γ signaling at each step of complex formation. Since IFN-γ is a dimeric cytokine driving the dimerization of four receptors, further experiments were performed to design and generate variants of IFN-γ to affect one or more of the different signaling intermediates. The design of the partial agonists was achieved by first engineering a version of IFN-γ that abolished binding to IFN-γR2 receptor. Based on the structure described in Example 2, a triple IFN-γ mutant having three amino acid substitutions K74A, E75Y, and N83R (See FIG. 3A) was designed and validated for the loss of measurable binding to IFN-γR2 as determined by surface plasmon resonance (FIGS. 3B-3D). Without being bound to any particular theory, several other mutations or combinations thereof of the IFN-γR2 binding site amino acids of IFN-γ as indicated in the crystal structure (FIG. 2), either alone or in combination with mutations within the IFN-γR1 binding site, could also result in similar effects on IFN-γR2 binding. […]

B1: triple IFN-γ mutant having three amino acid substitutions K74A, E75Y, and N83R (ligand)
chain: QDPYVKEAENLKKYFNAGHSDVADNGTLFLGILKNWKEESDRKIMQSQIVSFYFKLFKNFKDDQSIQKSVETIAYDMNVKFFRSNKKKRDDFEKLTNYSVTDLNVQRKAIHELIQVMAELSPAAKTGKRKRSQ
notes: also called IFN-γ (K74A/E75Y/N75R); IFN-γK74A/E75Y/N83A
binding result: no binding
